This passage reports binding result and Kd results from article PMC11358308, “Structure-based humanization of a therapeutic antibody for multiple myeloma” (Journal of Molecular Medicine (Berlin, Germany), 2024).

Common to all, as to conditions: both partners purified
One experiment concerns the target T1, cynomolgus BCMA (Macaca fascicularis, UniProt A0A2K5UD97).
T1 construct: B-cell maturation antigen (BCMA), cynomolgus monkey (macaque); differs from human BCMA at three positions: alanine 20 is aspartic acid, isoleucine 22 is lysine, asparagine 31 of hBCMA is deleted; also called cynoBCMA; cBCMA
Description: SPR; ProteOn XPR36; whole IgG (15 µg/ml) immobilised on GLH chip by amine chemistry; BCMA as mobile phase in PBS with 0.005% Tween-20 (0.4-90 nM hBCMA, 2.7 nM-1 µM cBCMA); Kd from kon and koff, single-site model.

Experiment [1] deals with T2, human B-cell maturation antigen (BCMA), extracellular domain (Homo sapiens (Human)., UniProt Q02223).
T2 construct: B-cell maturation antigen (BCMA), human; soluble form used as mobile phase in SPR and in the Fab:BCMA crystals; holds the DxL loop (L17) and H19; also called hBCMA; human BCMA
Described as above.

Experiment [2] addresses T2, human B-cell maturation antigen (BCMA), …. Put plainly: crystal structure; Fab:BCMA complexes; 21% PEG 3350, 0.1 M BisTris pH 6.5, 5 mM CuCl2, 20 °C; molecular replacement.

T2 sequence (Q02223 1-54): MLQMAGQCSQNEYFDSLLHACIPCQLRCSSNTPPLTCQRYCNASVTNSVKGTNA

B1: J22.9-xi, chimaeric mouse/human IgG (antibody, V domains shown)
VH: QVQLQQSGGGLVQPGGSLKLSCAASGIDFSRYWMSWVRRAPGKGLEWIGEINPDSSTINYAPSLKDKFIISRDNAKNTLYLQMSKVRSEDTALYYCASLYYDYGDAMDYWGQGTSVTVSS
VL: DIVMTQSQRFMTTSVGDRVSVTCKASQSVDSNVAWYQQKPRQSPKALIFSASLRFSGVPARFTGSGSGTDFTLTISNLQSEDLAEYFCQQYNNYPLTFGAGTKLELK
notes: mouse VH of J22.9 (mVH); mouse VL of J22.9 (mVL); Fab light chain in PDB 4ZFO; IgG1; whole IgG immobilised in SPR
In the case of B1, the binding result with cynomolgus BCMA was “binds”. This molecule also registered a Kd in experiment [1] of 0.28 nM.

B2: J22.9-H, humanized IgG (all humanizing substitutions in VH and VL except A46L in VL) (antibody, V domains shown)
VH: EVQLVESGGGLVQPGGSLRLSCAASGFTFSRYWMSWVRQAPGKGLVWVGEINPDSSTINYAPSLKDKFTISRDNAKNTLYLQMNSLRAEDTAVYYCASLYYDYGDAMDYWGQGTLVTVSS
VL: EIVMTQSPATLSVSPGERATLSCKASQSVDSNVAWYQQKPGQAPRALIYSASLRFSGIPARFSGSGSGTEFTLTISSLQSEDFAVYYCQQYNNYPLTFGAGTKLELK
notes: humanized VH (hVH, 16 changes against the mouse VH); human IgG1 heavy chain constant region, as told for J22.9-xi; Fab light chain in PDB 8QY9; whole IgG in SPR and FACS; source: expressed, purified
Turning to B2, the binding result with cynomolgus BCMA is listed as “binds”. In experiment [1], this molecule displayed a Kd of 15 nM.

B3: J22.9-ISY, humanized and CDR-optimized IgG (antibody, V domains shown)
VH: EVQLVESGGGLVQPGGSLRLSCAASGFTFSRYWISWVRQAPGKGLVWVGEINPSSSTINYAPSLKDKFTISRDNAKNTLYLQMNSLRAEDTAVYYCASLYYDYGDAYDYWGQGTLVTVSS
VL: EIVMTQSPATLSVSPGERATLSCKASQSVESNVAWYQQKPGQAPRALIYSASLRFSGIPARFSGSGSGTEFTLTISSLQSEDFAVYYCQQYNNYPLTFGAGTKLELK
notes: as the VH of m5 (J22.9-H; human IgG1 heavy chain constant region, as told for J22.9-xi; source: expressed, purified)
Regarding B3, the binding result (with cynomolgus BCMA; in experiment [1]) was “binds” throughout.

B4: J22.9-ISY Fab fragment (Fab, V domains shown)
VH: EVQLVESGGGLVQPGGSLRLSCAASGFTFSRYWISWVRQAPGKGLVWVGEINPSSSTINYAPSLKDKFTISRDNAKNTLYLQMNSLRAEDTAVYYCASLYYDYGDAYDYWGQGTLVTVSS
VL: EIVMTQSPATLSVSPGERATLSCKASQSVESNVAWYQQKPGQAPRALIYSASLRFSGIPARFSGSGSGTEFTLTISSLQSEDFAVYYCQQYNNYPLTFGAGTKLELK
notes: Fab heavy chain; as the light chain of m7 (light chain of J22.9-H with D30E); Crystallised in complex with BCMA
Take B4: the binding result in experiment [2] is “binds”.

B5: J22.9-FSY, humanized and CDR-optimized IgG (antibody, V domains shown)
VH: EVQLVESGGGLVQPGGSLRLSCAASGFTFSRYWFSWVRQAPGKGLVWVGEINPSSSTINYAPSLKDKFTISRDNAKNTLYLQMNSLRAEDTAVYYCASLYYDYGDAYDYWGQGTLVTVSS
VL: EIVMTQSPATLSVSPGERATLSCKASQSVESNVAWYQQKPGQAPRALIYSASLRFSGIPARFSGSGSGTEFTLTISSLQSEDFAVYYCQQYNNYPLTFGAGTKLELK
notes: as the VH of m5 (J22.9-H); human IgG1 heavy chain constant region, as told for J22.9-xi; as the light chain of m5 (J22.9-H; no structure of this variant; source: expressed, purified)
On to B5, for which the binding result (with cynomolgus BCMA; in experiment [1]) was “binds” throughout.
